Source: PMC11197762 (Fundamental Research, 2022)

Biological target: GST-p53, full-length, wild-type (human, UniProt P04637 1-393)
Test: pull-down

Sequence of GST-p53, full-length, wild-type (P04637 whole entry): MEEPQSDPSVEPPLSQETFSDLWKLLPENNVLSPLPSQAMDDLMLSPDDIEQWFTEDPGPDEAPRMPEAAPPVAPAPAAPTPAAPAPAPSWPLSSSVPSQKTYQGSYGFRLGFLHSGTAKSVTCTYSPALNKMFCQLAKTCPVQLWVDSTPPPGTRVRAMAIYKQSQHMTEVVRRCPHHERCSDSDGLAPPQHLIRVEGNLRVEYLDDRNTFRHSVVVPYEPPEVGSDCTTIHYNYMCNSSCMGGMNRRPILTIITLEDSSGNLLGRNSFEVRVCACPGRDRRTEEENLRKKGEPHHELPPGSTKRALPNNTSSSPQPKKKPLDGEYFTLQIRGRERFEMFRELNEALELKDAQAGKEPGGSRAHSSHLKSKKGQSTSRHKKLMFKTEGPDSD

binding result: binds
B1: BRD4 basic residue-enriched interaction domain (BID, aa 524-579), purified (domain or fragment)
chain: QLAALSQPQQNKPKKKEKDKKEKKKEKHKRKEEVEENKKSKAKEPPPKKTKKNNSS
